Laboratory results reported in patent publication US20180172683A1 (published 2018).
Ends that are not written are not given here. * marks the point of attachment. Ser‑Gly linker = flexible serine-glycine linker, six amino acids long; Biotin = O=C1N[C@H]2[C@H](CS[C@H]2CCCCC(=O)*)N1

B1: B-cell lymphoma extra-large protein (Bcl-xL), first 209 amino acids with N-terminal avitag (other)
chain: AGGLNDIFEAQKIEWHEGGMSQSNRELVVDFLSYKLSQKGYSWSQFSDVEENRTEAPEGTESEMETPSAINGNPSWHLADSPAVNGATGHSSSLDAREVIPMAAVKQALREAGDEFELRYRRAFSDLTSQLHITPGTAYQSFEQVVNELFRDGVNWGRIVAFFSFGGALCVESVDKEMQVLVSRIAAWMATYLNDHLEPWIQENGGWDTFVELYGNNAAAESRKGQER
modifications: biotin on the avitag (BirA biotin ligase); a non-biotinylated form was used as the excess competitor in solution in the off-rate assays
notes: range 1-209; Expressed in E. coli BL21(DE3); Used in solution (forward assays) or immobilized through biotin on streptavidin plates or beads (reverse assay, off-rate and HTSK experiments); not shown: His tag implied (pET24a NdeI/XhoI, Ni-NTA purification, anti-HIS probe)

Tests used:
[1] = target: B1; experiment: calculated from the equilibrium Kd and the radiolabeled off-rate
Experimental: (§1) The Kd for the peptides is measured by the equilibrium ELISA/AAMP assays (Table 1). The off-rate for these peptides was obtained by measuring the dissociation rate for radiolabeled peptide-mRNA fusions bound to immobilized Bcl-xL. The on-rate was calculated based on the equilibrium Kd measurements and the radiolabeled off-rate.

[2] = target: B1; experiment: equilibrium ELISA/AMMP (value of Table 1 given again)
[3] = target: B1; experiment: equilibrium ELISA and AMMP, monovalent model, known [L]0
[4] = target: B1; experiment: equilibrium ELISA, monovalent model
Experimental: (§2) After the capture ligand incubation, 100 μL of sample or standards were added in each well, and incubated for 1 hour at room temperature. Plates were washed, incubated with HRP-conjugated probe antibody (such as anti-HIS tag antibody) in sample buffer for 1 hour, washed, and incubated with TMB substrate (Thermo Scientific). Reactions were stopped after approximately 10 minutes with 2 M sulfuric acid, and the absorbance at 450 nm was measured via a plate reader (Molecular Devices). The ligand of interest, capture ligand, target protein, and probe ligand used in example ELISA assays performed are highlighted in the table below.
(§3) Enzymatic Kd Calculation Assay. The Kd values of ligands of interest were determined using a protocol modified from Friguet et al., Journal of immunological methods, 77, 305-319 (1985). The samples were prepared and analyzed by ELISA assay in a similar process as described above. The OD450 for the standards and their concentration values were fit to a four parameter logistic curve (standard curve). The concentration of the free Bcl-xL in solution (responsible for the signal) for each sample was calculated using the standard curve, and converted into percent of Bcl-xL bound by ligand in solution. For each ligand, the values for all the tested concentration of Bcl-xL and peptide in solution were fit simultaneously to the monovalent equilibrium model below to obtain the dissociation constant Kd (in which [C]EQ, [T]₀, [L]₀ represent the concentration of the target-ligand complex at equilibrium, the initial concentration of the target protein, and the initial concentration of the ligand, respectively).
(§4) The equilibrium assay is a modified version of the method described by Friguet et al., supra. The samples were prepared and analyzed by ELISA assay in a similar process as described above.

[5] = target: B1; experiment: equilibrium AMMP, monovalent model
Experimental: (§5) AMMP Assays. For the AMMP assays, 90 μL of each sample or standards was incubated with 30 μL of magnetic beads (12 μg of beads/mL) and fluorescein-labeled antibody (8 nM) in sample buffer for 1 hour. The experiment's run buffer was 1×PBS+1% (v/v) Tween-20+1% (v/v) heat-treated FBS (Invitrogen; FBS was heat treated for 15 minutes at 65° C. and filtered). BioScale Universal Detection Cartridges were used in performing all of the assays. The device was used per the manufacturer's instructions. The ligand of interest, capture ligand, target protein, and probe ligand used in example AMMP assays performed are highlighted in the table below.
(§6) A competing ligand of unknown Kd was incubated with the target and allowed to equilibrate. The target protein bound to the competing ligand is not anchored to the magnetic beads. Subsequent wash steps thereby […]. The Kd of interaction between the target protein and the competing ligand can then be determined by quantifying the amount of free target in solution.

[6] = target: B1; experiment: equilibrium ELISA and AMMP, monovalent model, Kd and [L]0 fit simultaneously
[7] = target: B1; experiment: binding (equilibrium ELISA) Kd
Experimental: as §2, with “ELISA Assays. […] Plates were washed 3× with wash buffer (1×PBS+0.1% (v/v) Tween-20) and blocked with 1×PBS+5% (w/v) BSA for two hours. […] After” for “After”
Enzymatic Kd Calculation Assay. The Kd values of ligands of interest were determined using a protocol modified from Friguet et al., Journal of immunological methods, 77, 305-319 (1985). The samples were prepared and analyzed by ELISA assay in a similar process as described above. The OD450 for the standards and their concentration values were fit to a four parameter logistic curve (standard curve). The concentration of the free Bcl-xL in solution (responsible for the signal) for each sample was calculated using the standard curve, and converted into percent of Bcl-xL bound by ligand in solution. […]

[8] = target: B1; experiment: radiolabeled HA-tagged peptide off-rate from immobilized Bcl-xL
Experimental: (§7) The radiolabeled peptides were allowed to bind to 30 pmol immobilized Bcl-xL for 1 hour in sample buffer (1×PBS, 1% (w/v) BSA, 0.1% (v/v) Tween 20, 10 μM biotin). The beads were magnetically separated, and washed 5× with sample buffer. The beads were resuspended in 1 mL of sample buffer containing 3 μM non-biotinylated Bcl-xL (˜100× molar excess relative to immobilized biotinylated Bcl-xL). At various time points, 100 μL of slurry was removed and the beads were magnetically separated and washed. The percent remaining at each time point was determined by dividing the counts per minute (cpm) on beads by total cpm (beads+washes). The peptide off-rate was determined by an exponential fit of the Percent counts on beads vs. Time (s).
The peptide ligands were made using a C-terminal HA tag, and affinity purified.

[9] = target: B1; experiment: dissociation of radiolabeled construct from immobilized Bcl-xL with excess Bcl-xL in solution
Experimental: as §7, §1

[10] = target: T1, Bim peptide (synthetic 26-residue fragment of Bim, biotin-labeled) (C-terminal amide; biotin on the side chain of the C-terminal Lys); experiment: equilibrium ELISA, monovalent model
Experimental: as §2, §3, §4

[11] = target: T1, Bim peptide (synthetic 26-residue …); experiment: equilibrium AMMP, monovalent model
Experimental: as §5, §6

[12] = target: T1, Bim peptide (synthetic 26-residue …); experiment: equilibrium ELISA and AMMP, monovalent model, Kd and [L]0 fit simultaneously

T1 sequence (peptide, as listed by the source): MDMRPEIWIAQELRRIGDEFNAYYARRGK

Binder	kon [1]	Kd [2]	Kd [3]	Kd [4]	Kd [5]	Kd [6]	koff [9]	also measured
MIETITIYKYKKAADHFSMSMGSK(Biotin)-NH2 (N-terminus assumed; SMILES CC[C@H](C)[C@H](NC(=O)[C@@H](NC(=O)[C@@H](NC(=O)[C@@H](NC(=O)[C@H](CCC(=O)O)NC(=O)[C@@H](NC(=O)[C@@H](N)CCSC)[C@@H](C)CC)[C@@H](C)O)[C@@H](C)CC)[C@@H](C)O)C(=O)N[C@@H](Cc1ccc(O)cc1)C(=O)N[C@@H](CCCCN)C(=O)N[C@@H](Cc1ccc(O)cc1)C(=O)N[C@@H](CCCCN)C(=O)N[C@@H](CCCCN)C(=O)N[C@@H](C)C(=O)N[C@@H](C)C(=O)N[C@@H](CC(=O)O)C(=O)N[C@@H](Cc1c[nH]cn1)C(=O)N[C@@H](Cc1ccccc1)C(=O)N[C@@H](CO)C(=O)N[C@@H](CCSC)C(=O)N[C@@H](CO)C(=O)N[C@@H](CCSC)C(=O)NCC(=O)N[C@@H](CO)C(=O)N[C@@H](CCCCNC(=O)CCCC[C@@H]1SC[C@@H]2NC(=O)N[C@@H]21)C(N)=O, Solid phase Fmoc synthesis; also called E2 Pep) [Peptide E2 (synthetic, biotin-labeled)]	53000 M⁻¹ s⁻¹	0.3 nM	0.3 nM	0.29 nM	0.315 nM	0.24 nM		
MIETITIYNYKKAADHFSMSMGSK(Biotin)-NH2 (N-terminus assumed; SMILES CC[C@H](C)[C@H](NC(=O)[C@@H](NC(=O)[C@@H](NC(=O)[C@@H](NC(=O)[C@H](CCC(=O)O)NC(=O)[C@@H](NC(=O)[C@@H](N)CCSC)[C@@H](C)CC)[C@@H](C)O)[C@@H](C)CC)[C@@H](C)O)C(=O)N[C@@H](Cc1ccc(O)cc1)C(=O)N[C@@H](CC(N)=O)C(=O)N[C@@H](Cc1ccc(O)cc1)C(=O)N[C@@H](CCCCN)C(=O)N[C@@H](CCCCN)C(=O)N[C@@H](C)C(=O)N[C@@H](C)C(=O)N[C@@H](CC(=O)O)C(=O)N[C@@H](Cc1c[nH]cn1)C(=O)N[C@@H](Cc1ccccc1)C(=O)N[C@@H](CO)C(=O)N[C@@H](CCSC)C(=O)N[C@@H](CO)C(=O)N[C@@H](CCSC)C(=O)NCC(=O)N[C@@H](CO)C(=O)N[C@@H](CCCCNC(=O)CCCC[C@@H]1SC[C@@H]2NC(=O)N[C@@H]21)C(N)=O, Solid phase Fmoc synthesis; also called E1 Pep) [Peptide E1 (synthetic, biotin-labeled)]	310000 M⁻¹ s⁻¹	0.039 nM	0.039 nM	0.034 nM	0.045 nM	0.027 nM		Kd [7]: 0.039 nM
MIETITIYNYKKAADHFSMSM-{Ser‑Gly linker-HA tag} (also: 35S-labeled methionine, not shown: flexible serine-glycine linker, six amino acids long; HA tag) [E1, radiolabeled in vitro translated peptide with C-terminal serine-glycine linker and HA tag]							1.2e-05 s⁻¹	koff [8]: 7.4e-06 s⁻¹
MIAISTIYNYKKAADHYAMTK-{Ser‑Gly linker-HA tag} (also: 35S-labeled methionine, not shown: flexible serine-glycine linker, six amino acids long; HA tag) [D1, radiolabeled in vitro translated peptide with C-terminal serine-glycine linker and HA tag]							2e-06 s⁻¹	koff [8]: 2e-06 s⁻¹
MIAISTIYNYKKAADHYAMTKGSK(Biotin)-NH2 (N-terminus assumed; SMILES CC[C@H](C)[C@H](NC(=O)[C@H](C)NC(=O)[C@@H](NC(=O)[C@@H](N)CCSC)[C@@H](C)CC)C(=O)N[C@@H](CO)C(=O)N[C@H](C(=O)N[C@H](C(=O)N[C@@H](Cc1ccc(O)cc1)C(=O)N[C@@H](CC(N)=O)C(=O)N[C@@H](Cc1ccc(O)cc1)C(=O)N[C@@H](CCCCN)C(=O)N[C@@H](CCCCN)C(=O)N[C@@H](C)C(=O)N[C@@H](C)C(=O)N[C@@H](CC(=O)O)C(=O)N[C@@H](Cc1c[nH]cn1)C(=O)N[C@@H](Cc1ccc(O)cc1)C(=O)N[C@@H](C)C(=O)N[C@@H](CCSC)C(=O)N[C@H](C(=O)N[C@@H](CCCCN)C(=O)NCC(=O)N[C@@H](CO)C(=O)N[C@@H](CCCCNC(=O)CCCC[C@@H]1SC[C@@H]2NC(=O)N[C@@H]21)C(N)=O)[C@@H](C)O)[C@@H](C)CC)[C@@H](C)O, Solid phase Fmoc synthesis; Also the capture ligand of the forward assays for peptide ligands; also called D1 Pep; D1 Peptide) [Peptide D1 (synthetic, biotin-labeled)]	240000 M⁻¹ s⁻¹	0.0085 nM	0.0085 nM	0.007 nM	0.012 nM	0.014 nM		Kd [7]: 0.009 nM
MIETITIYKYKKAADHFSMSMGSK (peptide, not shown: small tags and cut ends, also: 35S-labeled methionine, C-terminal extension: Ser-Gly linker and HA tag, or mRNA fusion) [E2, radiolabeled in vitro translated construct used for the off-rate of Table 3]							1.6e-05 s⁻¹	
B1								Kd [10]: 0.17 nM; Kd [11]: 0.077 nM; Kd [12]: 0.15 nM
